Data taken from patent publication US20250002574A1 (SUNSHINE LAKE PHARMA, published 2025).
Residue numbers refer to the chain shown, from its start.

B1: 3-6A4 (hybridoma) (antibody, human IgG1, kappa, V domains shown)
VH: QIQLVQSGPELKKPGETVKISCKASGYTFTTNGINWVKQAAGKGLKWMGWINTNTGEPTNAEELKGRFAFSLETSASTAYLQINNLKNEDAAIYFCAREGAFGLDYWGQGTSVTVSS
VL: SIVMTQSPKFLLVSAGDRVIITCKASQSVSNDVVWYQQKPGQSPKLLIYYGSHRNTGVPTRFTGSGYGTDFTFTISTVQAEDLAVYFCQQDFFSPWTFGGGTKLEIKR
notes: only the variable parts apply for certain
B2: 3-5B2-2G4 (antibody, human IgG1, kappa, V domains shown)
VH: QIQLVQSGPELKKPGETVKISCKASGYTFTNYGMNWVKQAPGKGLKWMGWINTNTGEPTYAEEIKGRFAFSLETSASTAYLQINNLKNEDTATYFCSREGIYGMDSWGQGTSVTVSS
VL: B1 VL with S7T, I20T, Q37R, G51A, H53N, N55Y, T56I, T60D, F92Y, F93Y
B3: “VH1+VL3”-scFv (scFv)
scFv: QVQLVQSGAEVKKPGASVKVSCKASDYTFTNYWLGWVRQAPGQGLEWMGHIYPGGGYTNYNEKFKGRVTMTRDTSTSTVYMELSSLRSEDTAVYYCARVRSGNDALDFWGQGTLVTVSSGGGGSGGGGSGGGGSEIVLTQSPATLSLSPGERATLSCRASESVDEYGISFMNWFQQKPGQAPRLLIYSASNQGSGIPARFSGSGSGTDFTLTISSLEPEDFAVYFCQQSKEVPWTFGGGTKLEIK
B4: “VH3+VL4”-scFv (scFv)
scFv: B3 scFv with M48I, V68A, M70L, R72A, Y95F, V223M
B5: “VH1+VL2”-scFv (scFv)
scFv: B3 scFv with F174Y
B6: “VH1+VL4”-scFv (scFv)
scFv: B3 scFv with V223M
B7: “VH4+VL1”-scFv (scFv)
scFv: B3 scFv with Q43H, M48I, V68A, M70L, R72A, Y95F, F174Y, F225Y
B8: “VH3+VL3”-scFv (scFv)
scFv: B3 scFv with M48I, V68A, M70L, R72A, Y95F
B9: “VH4+VL3”-scFv (scFv)
scFv: B3 scFv with Q43H, M48I, V68A, M70L, R72A, Y95F
B10: “VH2+VL2”-scFv (scFv)
scFv: B3 scFv with M48I, R72A, Y95F, F174Y
B11: “VH3+VL2”-scFv (scFv)
scFv: B3 scFv with M48I, V68A, M70L, R72A, Y95F, F174Y
B12: “VH2+VL4”-scFv (scFv)
scFv: B3 scFv with M48I, R72A, Y95F, V223M
B13: “VH2+VL1”-scFv (scFv)
scFv: B3 scFv with M48I, R72A, Y95F, F174Y, F225Y
B14: “VH3+VL1”-scFv (scFv)
scFv: B3 scFv with M48I, V68A, M70L, R72A, Y95F, F174Y, F225Y
B15: “VH2+VL3”-scFv (scFv)
scFv: B3 scFv with M48I, R72A, Y95F
B16: “VH4+VL2”-scFv (scFv)
scFv: B3 scFv with Q43H, M48I, V68A, M70L, R72A, Y95F, F174Y
B17: “VH1+VL1”-scFv (scFv)
scFv: B3 scFv with F174Y, F225Y
notes: CHO expression supernatant
B18: “VH4+VL4”-scFv (scFv)
scFv: B3 scFv with Q43H, M48I, V68A, M70L, R72A, Y95F, V223M
B19: Original sequence (1H9) (scFv)
scFv: B3 scFv
notes: Template scFv of the phage library, on phage; also called ScFv VH-Linker-VL of VH1+VL3
B20: 1F10 (scFv)
scFv: B3 scFv with F108I, S194D, E231D
notes: As m119: scFv on phage
B21: 1G11 (scFv)
scFv: B3 scFv with R100S, G193A, V232L
notes: As m119; the printed mutations are the same as those of 1F12
B22: 2E7 (scFv)
scFv: B3 scFv with G54S, R100S, V232L
notes: As m119: scFv on phage
B23: 1F7 (scFv)
scFv: B3 scFv with G35A, L155V, R183T, Q192L
notes: As m119: scFv on phage
B24: 2E2 (scFv)
scFv: B3 scFv with R100S, V232L
notes: As m119: scFv on phage
B25: 2F1 (scFv)
scFv: B3 scFv with R100S, V232L
notes: As m119; the printed mutations are the same as those of 2E2
B26: 1G9 (scFv)
scFv: B3 scFv with K13Q, G131D, Q192R, S214N
notes: As m119: scFv on phage
B27: 1B1 (scFv)
scFv: B3 scFv with E10V, R72S, R87S, R158H
notes: As m119: scFv on phage
B28: 1A10 (scFv)
scFv: B3 scFv with R100S, V232Q
B29: 1F12 (scFv)
scFv: B3 scFv with R100S, G193A, V232L
notes: As m119: scFv on phage
B30: 1E12 (scFv)
scFv: B3 scFv with R100S, F108L, A189G, Q192E, Q227N
notes: As m119: scFv on phage
B31: 1F9 (scFv)
scFv: B3 scFv with T30H, R100S, V232L
notes: As m119: scFv on phage
B32: 2F2 (scFv)
scFv: B3 scFv with R100S, F108L, G122E
notes: As m119: scFv on phage
B33: 2G9 (scFv)
scFv: B3 scFv with R100S, S188G, V232L
notes: As m119: scFv on phage

These binders were tested against T1, IL-11 (UniProt P20809 22-199, limits assumed) (assay: flow, IL-11 + antibody on IL-11R cells; lower = more blocking).
T1 construct: also called IL-11 protein; IL-11 antigen
T1 sequence (looked up): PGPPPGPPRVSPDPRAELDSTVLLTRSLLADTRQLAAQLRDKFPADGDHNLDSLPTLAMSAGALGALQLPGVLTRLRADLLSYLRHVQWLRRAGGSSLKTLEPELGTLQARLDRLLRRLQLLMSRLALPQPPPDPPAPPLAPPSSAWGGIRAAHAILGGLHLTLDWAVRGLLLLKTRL
B1 was tested, and the “FITC Mean” value was 3040 mean fluorescence. For B2, the “FITC Mean” value was 19800 mean fluorescence.

What follows are binders tested against T1, IL-11 (assay: ELISA on IL-11, monoclonal hybridoma antibody).
Work on B1 yielded an OD450 of 1.58 OD450. Binder B2 has an OD450 of 1.65 OD450.

These binders were tested against T1, IL-11 (assay: SPR Biacore, scFv captured, IL-11 400 nM).
Procedure: The measure method included the steps of capturing the humanized single-chain antibody at a flow rate of 10 uL/min. […] Finally, the chip was regenerated with 10 mM glycine buffer.
In the case of B3, the Kd is reported as 12.3 nM, the koff is reported as 0.000436 s⁻¹ and the kon is reported as 35500 M⁻¹ s⁻¹. B4 showed a Kd of 13.3 nM, a koff of 0.000556 s⁻¹ and a kon of 41800 M⁻¹ s⁻¹. B5 showed a Kd of 11.2 nM, a koff of 0.000461 s⁻¹ and a kon of 41300 M⁻¹ s⁻¹. For B6, the Kd was 11.7 nM, the koff was 0.000387 s⁻¹ and the kon was 33100 M⁻¹ s⁻¹. B7 was tested, and the Kd was 17.2 nM, the koff was 0.00084 s⁻¹ and the kon was 48900 M⁻¹ s⁻¹. Binder B8 has a Kd of 9.76 nM, a koff of 0.000464 s⁻¹ and a kon of 47600 M⁻¹ s⁻¹. B9 gave a Kd of 11.2 nM, a koff of 0.000516 s⁻¹ and a kon of 46100 M⁻¹ s⁻¹. For B10, the Kd was 17.8 nM, the koff was 0.000812 s⁻¹ and the kon was 45700 M⁻¹ s⁻¹. For B11, the Kd was 14.6 nM, the koff was 0.00068 s⁻¹ and the kon was 46500 M⁻¹ s⁻¹. For B12, the Kd was 10.8 nM, the koff was 0.000528 s⁻¹ and the kon was 48800 M⁻¹ s⁻¹. B13 was tested, and the Kd was 16.7 nM, the koff was 0.00089 s⁻¹ and the kon was 53400 M⁻¹ s⁻¹. B14 gave a Kd of 22.5 nM, a koff of 0.001 s⁻¹ and a kon of 44500 M⁻¹ s⁻¹. Binder B15 has a Kd of 11.9 nM, a koff of 0.000541 s⁻¹ and a kon of 45600 M⁻¹ s⁻¹. B16 was tested, and the Kd was 11.1 nM, the koff was 0.000614 s⁻¹ and the kon was 55200 M⁻¹ s⁻¹. In the case of B17, the Kd is reported as 21.6 nM, the koff is reported as 0.000758 s⁻¹ and the kon is reported as 35100 M⁻¹ s⁻¹. With B18 the Kd was 10 nM, the koff was 0.000481 s⁻¹ and the kon was 47900 M⁻¹ s⁻¹.

What follows are binders tested against T1, IL-11 (assay: flow cytometry of phage clone; cells not given).
In the case of B19, the “Flow (Mean)” value is reported as 450 mean fluorescence. B20 was tested, and the “Flow (Mean)” value was 2640 mean fluorescence. B21 was tested, and the “Flow (Mean)” value was 2900 mean fluorescence. B22 was tested, and the “Flow (Mean)” value was 1990 mean fluorescence. B23 was tested, and the “Flow (Mean)” value was 1860 mean fluorescence. With B24 the “Flow (Mean)” value was 2100 mean fluorescence. With B25 the “Flow (Mean)” value was 2390 mean fluorescence. With B26 the “Flow (Mean)” value was 2240 mean fluorescence. With B27 the “Flow (Mean)” value was 3500 mean fluorescence. With B28 the “Flow (Mean)” value was 2200 mean fluorescence. With B29 the “Flow (Mean)” value was 4140 mean fluorescence. B30 was tested, and the “Flow (Mean)” value was 6320 mean fluorescence. B31 was tested, and the “Flow (Mean)” value was 3820 mean fluorescence. For B32, the “Flow (Mean)” value was 2000 mean fluorescence. In the case of B33, the “Flow (Mean)” value is reported as 1910 mean fluorescence.

The binders below were run against T1, IL-11 (assay: phage ELISA on IL-11).
In the case of B19, the ELISA is reported as 1.16. B20 was tested, and the ELISA was 2.6. B21 gave an ELISA of 2.58. Binder B22 has an ELISA of 2.19. Binder B23 has an ELISA of 2.38. Binder B24 has an ELISA of 2.58. In the case of B25, the ELISA is reported as 2.1. With B26 the ELISA was 2.81. B27 was tested, and the ELISA was 1.46. Binder B28 has an ELISA of 2.06. For B29, the ELISA was 2.59. For B30, the ELISA was 2.2. B31 showed an ELISA of 2.59. With B32 the ELISA was 2.65. With B33 the ELISA was 2.09.
